Where two headings read alike, the source gives them in different places.
T1: IL-5Rα (human, UniProt Q01344)
T1 chain: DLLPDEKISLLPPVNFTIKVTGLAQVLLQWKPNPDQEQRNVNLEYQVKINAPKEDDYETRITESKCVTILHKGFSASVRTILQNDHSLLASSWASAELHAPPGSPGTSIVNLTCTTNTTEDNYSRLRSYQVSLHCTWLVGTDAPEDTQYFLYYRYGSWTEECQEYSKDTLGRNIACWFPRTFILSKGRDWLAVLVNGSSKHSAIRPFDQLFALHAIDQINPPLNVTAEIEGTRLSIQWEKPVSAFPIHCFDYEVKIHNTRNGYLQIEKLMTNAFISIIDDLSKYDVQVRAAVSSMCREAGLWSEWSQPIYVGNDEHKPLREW


Key:
IL-5Rα [1] = biological target: T1, IL-5Rα
CD3ε = CD3ε (human, UniProt P07766); assay: BLI
IL-5Rα [2] = biological target: T1, IL-5Rα; assay: BLI

Sequence of CD3ε (P07766 23-207): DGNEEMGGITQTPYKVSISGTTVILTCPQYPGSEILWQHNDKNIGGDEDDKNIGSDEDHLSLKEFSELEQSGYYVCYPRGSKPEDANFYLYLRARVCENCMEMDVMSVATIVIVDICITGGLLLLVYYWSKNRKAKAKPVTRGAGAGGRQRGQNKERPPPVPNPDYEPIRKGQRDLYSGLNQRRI

| Binder | Kd (CD3ε) [nM] | Kd (IL-5Rα [2]) [nM] | further results |
| --- | --- | --- | --- |
| Benralizumab (antibody, V domains shown) VH: EVQLVQSGAEVKKPGASVKVSCKASGYTFTSYVIHWVRQRPGQGLAWMGYINPYNDGTKYNERFKGKVTITSDRSTSTVYMELSSLRSEDTAVYLCGREGIRYYGLLGDYWGQGTLVTVSS VL: DIQMTQSPSSLSASVGDRVTITCGTSEDIINYLNWYQQKPGKAPKLLIYHTSRLQSGVPSRFSGSGSGTDFTLTISSLQPEDFATYYCQQGYTLPYTFGQGTKVEIK |  |  | Kd (IL-5Rα [1]): 26.8 nM |
| IL-5Rα×CD3ε BiTE(L)/scFv-Fc (CD3ε arm) (antibody, V domains shown) VH: EVQLVESGGGLVQPKGSLKLSCAASGFTFNTYAMNWVRQAPGKGLEWVARIRSKYNNYATYYADSVKDRFTISRDDSQSILYLQMNNLKTEDTAMYYCVRHGNFGNSYVSWFAYWGQGTLVTVSS VL: QAVVTQESALTTSPGETVTLTCRSSTGAVTTSNYANWVQEKPDHLFTGLIGGTNKRAPGVPARFSGSLIGDKAALTITGAQTEDEAIYFCALWYSNLWVFGGGTKLTVL | 4.62 |  |  |
| IL-5Rα×CD3ε BiTE(L)/scFv-Fc (IL-5Rα arm) (antibody, V domains shown) VH: QVQLVQSGAEVKKPGSSVKVSCKASGYTFTSYWINWVRQAPGQGLEWIGHIYPNKNENYYNHKFKDKATLTVDKSTNTAYMELSSLRSEDTAVYYCTREFYGRQYYQAMDYWGQGTTLTVSS VL: DIQMTQSPSTLSASVGDRVTITCKASQNVGTAVAWYQQKPGKAPKLLIYWASTRHTGVPDRFSGSGSGTDFTLTISSLQPDDFATYYCQQFGRYPYTFGSGTKVEVK |  | 22.9 |  |
| 5R65.7 (antibody, V domains shown) VH: QVQLVQSGAEVKKPGSSVKVSCKASGYTFTSYWINWVRQAPGQGLEWIGHIYPNKNENYYNHKFKDKATLTVDKSTNTAYMELSSLRSEDTAVYYCTREFYGRQYYQAMDYWGQGTTLTVSS VL: DIQMTQSPSTLSASVGDRVTITCKASQNVGTAVAWYQQKPGKAPKLLIYWASTRHTGVPDRFSGSGSGTDFTLTISSLQPDDFATYYCQQFGRYPYTFGSGTKVEVK |  |  | Kd (IL-5Rα [1]): 4.64 nM |
| 5R65 (antibody, V domains shown) VH: QVQLVQSGAEVKKPGSSVKVSCKASGYTFTSYWINWVRQAPGQGLEWIGHIYPNKNENYYNHKFKDKATLTVDKSTNTAYMELSSLRSEDTAVYYCTRDYYGRSYYYAMDYWGQGTTLTVSS VL: DIQMTQSPSTLSASVGDRVTITCKASQNVGTAVAWYQQKPGKAPKLLIYWASTRHTGVPDRFSGSGSGTDFTLTISSLQPDDFATYYCQQFGRYPYTFGSGTKVEVK |  |  | Kd (IL-5Rα [1]): 14.5 nM |

Further lines, with some results ahead:

| Kd (CD3ε) [nM] | Kd (IL-5Rα [2]) [nM] | Binder | further results |
| --- | --- | --- | --- |
| 3.61 |  | IL-5Rα×CD3ε scFv(L)/scFv-Fc (CD3ε arm) (antibody, V domains shown) VH: EVQLVESGGGLVQPKGSLKLSCAASGFTFNTYAMNWVRQAPGKGLEWVARIRSKYNNYATYYADSVKDRFTISRDDSQSILYLQMNNLKTEDTAMYYCVRHGNFGNSYVSWFAYWGQGTLVTVSS VL: QAVVTQESALTTSPGETVTLTCRSSTGAVTTSNYANWVQEKPDHLFTGLIGGTNKRAPGVPARFSGSLIGDKAALTITGAQTEDEAIYFCALWYSNLWVFGGGTKLTVL |  |
| 1.71 |  | IL-5Rα×CD3ε IgG analog (CD3ε arm) (antibody, V domains shown) VH: EVQLVESGGGLVQPKGSLKLSCAASGFTFNTYAMNWVRQAPGKGLEWVARIRSKYNNYATYYADSVKDRFTISRDDSQSILYLQMNNLKTEDTAMYYCVRHGNFGNSYVSWFAYWGQGTLVTVSS VL: QAVVTQESALTTSPGETVTLTCRSSTGAVTTSNYANWVQEKPDHLFTGLIGGTNKRAPGVPARFSGSLIGDKAALTITGAQTEDEAIYFCALWYSNLWVFGGGTKLTVL |  |
| 8.41 |  | IL-5Rα×CD3ε Diabody-Fc (CD3ε arm) (antibody, V domains shown) VH: EVQLVESGGGLVQPKGSLKLSCAASGFTFNTYAMNWVRQAPGKGLEWVARIRSKYNNYATYYADSVKDRFTISRDDSQSILYLQMNNLKTEDTAMYYCVRHGNFGNSYVSWFAYWGQGTLVTVSS VL: QAVVTQESALTTSPGETVTLTCRSSTGAVTTSNYANWVQEKPDHLFTGLIGGTNKRAPGVPARFSGSLIGDKAALTITGAQTEDEAIYFCALWYSNLWVFGGGTKLTVL |  |
|  | 30.5 | IL-5Rα×CD3ε IgG analog (IL-5Rα arm) (antibody, V domains shown) VH: QVQLVQSGAEVKKPGSSVKVSCKASGYTFTSYWINWVRQAPGQGLEWIGHIYPNKNENYYNHKFKDKATLTVDKSTNTAYMELSSLRSEDTAVYYCTREFYGRQYYQAMDYWGQGTTLTVSS VL: DIQMTQSPSTLSASVGDRVTITCKASQNVGTAVAWYQQKPGKAPKLLIYWASTRHTGVPDRFSGSGSGTDFTLTISSLQPDDFATYYCQQFGRYPYTFGSGTKVEVK |  |
|  | 59.8 | IL-5Rα×CD3ε scFv(L)/scFv-Fc (IL-5Rα arm) (antibody, V domains shown) VH: QVQLVQSGAEVKKPGSSVKVSCKASGYTFTSYWINWVRQAPGQGLEWIGHIYPNKNENYYNHKFKDKATLTVDKSTNTAYMELSSLRSEDTAVYYCTREFYGRQYYQAMDYWGQGTTLTVSS VL: DIQMTQSPSTLSASVGDRVTITCKASQNVGTAVAWYQQKPGKAPKLLIYWASTRHTGVPDRFSGSGSGTDFTLTISSLQPDDFATYYCQQFGRYPYTFGSGTKVEVK |  |
|  | 123 | IL-5Rα×CD3ε Diabody-Fc (IL-5Rα arm) (antibody, V domains shown) VH: QVQLVQSGAEVKKPGSSVKVSCKASGYTFTSYWINWVRQAPGQGLEWIGHIYPNKNENYYNHKFKDKATLTVDKSTNTAYMELSSLRSEDTAVYYCTREFYGRQYYQAMDYWGQGTTLTVSS VL: DIQMTQSPSTLSASVGDRVTITCKASQNVGTAVAWYQQKPGKAPKLLIYWASTRHTGVPDRFSGSGSGTDFTLTISSLQPDDFATYYCQQFGRYPYTFGSGTKVEVK |  |

Reference: patent publication US20260308264 (published 2026)
